Experimental data from the domain aggregation screens of Martell et al. (2025).

Assay: soluble fraction after stress (log2 fold change); higher = more stays soluble; pooled small domains, quantitative proteomics
Settings: stress: 75 degC
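Also: 20 min heating vs room temperature control held 20 min.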

Row | Sequence | soluble fraction (log2)
1 | HMEPFEQLLDRITSQTGKEPEEVVARMNELITERFDGNIRPEAALVIVAKRDNIQFMDLLDQLKQALL | -0.427
2 | HMEPIAFDNMHNRGIKGTNDWTQYEITLPFSAEAKKIFVAGLLVGKGKAWFDKFEVFLDGKNITDVAQI | 0.0509
3 | HMEPPPSYSALLKQISSGKVKELQLVPARREVIVTYPDGRSATVAILANDQQILRTAEAAGTPLLVK | 0.189
4 | HMEPQLVKSFDVQTELTYDQFLSKYPESHTLGRLLVQPEPIPFEPYKNIPGITPEKLLALHAKHLEAR | 0.107
5 | HMEPQSRTAYRLIEAMIVTHELPPGSRISEASLSAKLGIGRTPIREALQRLSFEGTVKIVPRSGAFVSEI | -2.78
6 | HMEPREALDGLISERGETYASISRLLGRNSAYIQQFIKRGSPARLDQSDIALLALHFDVPVEMLGGKE | -0.588
7 | HMEPTIGTATVTSGSRLNMRSAKSTSASVVTRIPSGATVGVISYASDWSKVTYNGYTGYVSSPYISMNG | -1.19
8 | HMEPVIELGDRTLPIEITRHRRARRLTLRLAADGSAVRITLPHWARSAEATAFAHARRDWLAAQLAK | 0.181
9 | HMEPVTETVYAMDTVNIRAAADQTSEKIGSVTVGTALTRTGTDGDWSIIDYNGTTGYVKSEFLSNTAPEV | 0.253
10 | HMEQLIIQEELSGKRLDQLVSLLFPSLTRAHAQKLIKEGAVLVNEKPRKPAYAVMTGELLTVELPEPE | -0.167
11 | HMEQNHYEVLGVSRDAIPEEIRKAYFEYARKLHPDANPDPGAAEQFMRIQTAYDVLSNPDRRHEYDGLLPP | 0.00418
12 | HMEQRREEFILLAKELLEKELRKQNLEVHENLKPDVLNDVAKRLGMVSMDDLLAAVGDGKITPGTVVSKIV | -0.0625
13 | HMEQVLNVAVRRGELIMSSAAEQTVRIYSSAGSMVWQGKVSASDVTVELPSGVYVVNGKKVV | -1.25
14 | HMEQYFEDEELNDKFLEFLAMRKRVRKPVQTDRGMKMLLTSLHKLSGGDVGLMKQIIDQSLDNEWKKFVA | -1.14
15 | HMERDIATKHEVNRTVEAYSDIVKTLNLPSHKINLVEISFFNILKRSKPSPRENSILLGLAQKIKLHLEKK | -0.737
16 | HMERLKYSQVVDLFKGEQVKSFVLDESNQLKMELQDGSTVSYKLRSFEQFYLDLSDTVKEQKESGIITDYD | -0.685
17 | HMERPPHELLSDREYQTMVMIASGRTLTQIAEEMSLSPKTVSVYRARLLEKMKLKNNAELTHYALKHKLV | -1.89
18 | HMERPSLDQVLAHAKALGIAPARFVAYADGRWGTGWRLSPHGRARAWEELDRHRNDPLGYRDKLDVALQSG | -0.179
19 | HMESAQLIINVAGKVSNPGVYQLPQGSRVVDAIEAAGKQLKGVDISDINLARVLVDGEQILVGGV | 0.363
20 | HMESAVDVFRSILKEKGVTEEEVRQVVAARGKYTLETPIDDYPNEFLYGYVIRYWDQIFDIIQQSREAK | -1.06
21 | HMESEAKLGVAFNGKTRFDMTFPADADNKTIEEAVLADERAQKYLEGFQVAKVIIVPKRMVNIVLK | -0.189
22 | HMESEIYKKIEKSRLLELAFTKSQKGDLTGAYDLYYQAFTKYDVIADNQNRYFEDFISLIRRKQQQD | -2.54
23 | HMESGLPLPRFVSLGADEVNLRTGPGLRYPVAWVFVRKALPVEIVAEFEQWRRVRDFEGAEGWVHKAML | -0.163
24 | HMESGSSKINQDILETFTRGKKSLSISDISRLSGHHRHTVARYLDNLVSSGKLEMRQHGQKKKYYLSDIQP | -0.314
25 | HMESILDDFPGLGAVRRAALLEHFGDIDRLRAASAVEITEVDGFGDVLARELHDFLHRPKPDA | -0.515
26 | HMESKKKTYTVKSGDTLVSILKREGVPQELIFKDYLGLFLELNPQISDINKLRVGQEIVLPVPG | 0.05
27 | HMESLGEKIKNIRISNNLKQSELADILHISEKTISSWENNRTTPDLNMIYKISNYFKKSFYYLISDDYI | -0.908
28 | HMESMIGSLRGRLLELFGDGEVLIEVGGVGYRVIVTPTTTVRLGDVGGDVFVHVHHHIREADQTLYGF | -0.48

Row | Sequence | soluble fraction (log2)
29 | HMESPSGGHRIALAFDQGTARAVDATYARLTGAGYEGRTKPWDAPWGQRYATVFDPDGNSVDLFAALE | -0.445
30 | HMESRDRVRQASAAGYRFMSTMAGHEPGFEEASRALFAGDQTAFEARITAWPVDVQTHLKKILAEAFTT | -1.17
31 | HMESRLQAAIALRKAGEHEQSREALKILADEPALRAQALLNIAWSFDNQGHERDAEGYYLAAIE | -0.381
32 | HMESSKLQASIINYLERRPTQKFTAEELFKGLSLEKASVFNELVKELTSLERSHKVEITADDKFKIARPQ | -0.331
33 | HMESSSQLGFELARLVESGNDEEARALVQAKELSEADERKWLYHLGNLLHAAGRPLQASAIWREVGT | 0.0141
34 | HMESVQWSVFPSAKYVTIISFDPTTSGGSATAKFKVSDEARSKGFRFRIEAAIGEGIMRSEMYVIEE | 0.215
35 | HMESWNRARILEKIRELHAQGVALNNASMRRLGYRGMMEAAARPQNFGSWEAAVRAAGIDYDRV | -0.275
36 | HMETAVMPDVMKLDSTTAIQALKDKGFATIETYEVKSDRPAGVVVRQSETADSVVALSKEILLGVSNGADY | ≥ 1.04
37 | HMETGFADTLRKFRKEADMTQEKLAEALGVTTGAVYKWENGRSTPEVRLLVEMADLFGTSVDALLDYKVR | -1.33
38 | HMETGKLIKELRLKKGMTQEELADKTEVSSRTIQRIENGEVDPRAYTLQMIARALEVDYSLFME | -0.408
39 | HMETIELSAPGGVRLDKLIADGTELSRSAAVKLIEQGNVLVNGSPAGKKDIPAAGAAVEITLPEPQ | 0.0135
40 | HMETIGENIKTYRQKKGYTQEEVANRLHVTRQTISKWEKNYSIPDAEVLVKLADVLEVQTSQLLGV | -0.374
41 | HMETIGKRVRAARQELGLTMKQLHEQTGLSTGNISDIENDRNTPSVSSLVALGRALRRSLDWLLTGEE | -0.959
42 | HMETISEIWRLIDGLDEIYRVPLTMYYRSNRSVREIAETLGLSARTVETRIYRARRMIREKWSN | -2.06
43 | HMETITDRLNRRSLELNVSQADIIRTTGAGRGTVSGWFSGANAPSAKYLESLAVALKTSTTWLLSGKD | -2.23
44 | HMETKERDEQFLEMIRQNEGIIFKVASFYVDKEHPIGDLYQEVVLNLWKGYPSFRGESKYSTWIYRIALNT | 0.058
45 | HMETKPTELMLEVHELRIGMFVHLDLGWMDHPFPLNRFKISTNSQIEQIKGLRLKQVKVMTALSDPTALS | -2.29
46 | HMETKQYIVEAQDEGTRLDVYLTKELGQSRSYVQSLVKEGHVQVNGKTGKSNLKLSSSSEILVTIPEVQ | 0.067
47 | HMETLKINTHLGTLNLKKRGKKGTWQINIYFKNIEGDNHYRQSTGTNQLELAKAKAMNMITTEYSNRLAGI | -1.67
48 | HMETMSYAEFNAIRIGKAKLMLADPSLKIWEISEAVGYTDTAHFARTFKKLEGMSANEYRNSL | -0.862
49 | HMETNFTGTRIATARKAKNMSQAQLAQQLFISPQAVGKWERGESIPDIVTVVKLADVLGVDLNYFSE | -0.572
50 | HMETPQIVARGDLITMVFRSGSLVLTAKGKALENGAMGDTIRVVNSDSNKTLAARVSASREVTVSE | -0.549
51 | HMETPSNTAGITHATSDGYIFKGESDIIGRNSFGFIVKHGSHNHIIPFDSLRGTKWEYLINKYT | 0.000248
52 | HMETSVDEVYKKIQAYIEAEDKHKPLSDQKLAEQLQSDGLKVSRRTVAKYREKLNIASSSKRKR | 0.242
53 | HMETTVPNVLNHNISTGEILLKENNLNFRIQYIPSNKDEAVGTIINSVPTSGEKVKFGTVVDLKVL | 0.146
54 | HMETVRHFRLDWSQAADRLDKVLASLMNDVSRARIQEWIRLGAVSVNGEILTDVRAKVAGGDAIDVTPQTA | -0.722
55 | HMETVRLSVDAQGAYYWNEQRVDDSALPDLLREASGRKPQPDLHIRGDKAVRYERVAEAMAAAQRAGLKKI | 0.272
